The stoichiometry N is a count of units in the complex or per binding partner.

Among the data in publication doi:10.1101/852715 are stoichiometry N values, retold here.

In this assay the target is NSTTR, artificially mutated variant of TTR carrying the double mutation N99R/S100R. Kind of assay: SEC-MALS. Background: SEC sorts molecules by how far they enter the pores of the column.

The substance “NSTTR, artificially mutated variant of TTR carrying the double mutation N99R/S100R (natural protein)” came in with a stoichiometry N of 4.
